In patent US8613931B2, “Compounds for treating beta-amyloidoses” (Affiris AG, priority 2008, dated 2013):

Key:
[1] = system: monoclonal antibody MV-001; assay: In vitro binding assay (ELISA), parental antibody MV-001; parameters: species or system C57/Bl6 mice; details: peptide-BSA on ELISA plate; OD halfmax, dilution factor 1:X of parental AB MV-001
Procedure: 1. In vitro binding assay (ELISA)
Peptides derived from Phage Display as well as variants thereof were coupled to BSA and bound to ELISA plates (1 μM; as indicated in the respective figures) and subsequently incubated with the monoclonal antibody that was used for the screening procedure to analyse binding capacity of identified peptides.

[2] = target: monoclonal antibody MV-001; assay: ELISA, peptide-BSA coated, MV-001; details: for Binding Capacity: scale: code
[3] = target: monoclonal antibody MV-001; assay: inhibition ELISA; competitor: coated original epitope p4371; details: for Inhibition Capacity: scale: code

Molecule | Binding Capacity [2] | also measured
TPLMFWHC [p4733] |  | Binding Capacity [1]: 1 (weak binding :<4000)
SAGSFRHC [p4710] |  | Binding Capacity [1]: 3 (strong binding :>20000)
QLFKHSPC [p4747] |  | Binding Capacity [1]: 3 (strong binding :>20000)
SNSEFRRC [p4743] |  | Binding Capacity [1]: 3 (strong binding :>20000)
SEFSHSSC [p4712] |  | Binding Capacity [1]: 3 (strong binding :>20000)
NELRHSTC [p4701] |  | Binding Capacity [1]: 3 (strong binding :>20000)
HEPLFSHC [p4719] |  | Binding Capacity [1]: 1 (weak binding :<4000)
QPNLFYHC [p4713] |  | Binding Capacity [1]: 1 (weak binding :<4000)
GEMRHQPC [p4702] |  | Binding Capacity [1]: 3 (strong binding :>20000)
APIQFRHC [p4750] |  | Binding Capacity [1]: 3 (strong binding :>20000)
ATPLFRHC [p4723] |  | Binding Capacity [1]: 3 (strong binding :>20000)
SQSYFKHC [p4755] |  | Binding Capacity [1]: 3 (strong binding :>20000)
NSSELRHC [p4752] |  | Binding Capacity [1]: 3 (strong binding :>20000)
EDWFFWHC [p4709] |  | Binding Capacity [1]: 1 (weak binding :<4000)
SELRHSTC [p4744] |  | Binding Capacity [1]: 3 (strong binding :>20000)
TSTEMWHC [p4754] |  | Binding Capacity [1]: 1 (weak binding :<4000)
QELKRYYC [p4724] |  | Binding Capacity [1]: 1 (weak binding :<4000)
LHIPFRHC [p4726] |  | Binding Capacity [1]: 3 (strong binding :>20000)
THMEFRRC [p4745] |  | Binding Capacity [1]: 3 (strong binding :>20000)
EFLRHTLC [p4722] |  | Binding Capacity [1]: 3 (strong binding :>20000)
SNFRHSVC [p4749] |  | Binding Capacity [1]: 3 (strong binding :>20000)
CHEFRH [p4802] | 3 | Inhibition Capacity [3]: 2
HEFRHC [p4803] | 3 | Inhibition Capacity [3]: 2
QDFRHYC [p4380] | 2 | Inhibition Capacity (code (weaker than original epitope)) [3]: 1
SEFKHGC [p4381] | 3 | Inhibition Capacity (code (weaker than original epitope)) [3]: 1
TSFRHGC [p4382] | 2 | Inhibition Capacity (code (weaker than original epitope)) [3]: 1
TSVFRHC [p4383] | 3 | Inhibition Capacity (code (weaker than original epitope)) [3]: 1

Molecule | Binding Capacity [2] | also measured
TPFRHTC [p4384] | 2 | Inhibition Capacity (code (weaker than original epitope)) [3]: 1
SQFRHYC [p4385] | 2 | Inhibition Capacity (code (weaker than original epitope)) [3]: 1
LMFRHNC [p4386] | 3 | Inhibition Capacity (code (weaker than original epitope)) [3]: 1
SAFRHHC [p4387] | 2 | Inhibition Capacity (code (weaker than original epitope)) [3]: 1
LPFRHGC [p4388] | 2 | Inhibition Capacity (code (weaker than original epitope)) [3]: 1
SHFRHGC [p4389] | 2 | Inhibition Capacity (code (weaker than original epitope)) [3]: 1
ILFRHGC [p4390] | 3 | Inhibition Capacity (code (weaker than original epitope)) [3]: 1
QFKHDLC [p4391] | 2 | Inhibition Capacity (code (weaker than original epitope)) [3]: 1
NELRHSTC [p4701] | 3 | 
GEMRHQPC [p4702] | 3 | 
DTYFPRSC [p4703] | 2 | 
VELRHSRC [p4704] | 2 | 
YSMRHDAC [p4705] | 2 | 
AANYFPRC [p4706] | 2 | 
SSSFFPRC [p4708] | 2 | 
EDWFFWHC [p4709] |  | Binding Capacity (code (weak binding, OD halfmax 1:<4000)) [2]: 1
SAGSFRHC [p4710] | 3 | 
QVMRHHAC [p4711] | 2 | 
SEFSHSSC [p4712] | 3 | 
QPNLFYHC [p4713] |  | Binding Capacity (code (weak binding, OD halfmax 1:<4000)) [2]: 1
ELFKHHLC [p4714] | 3 | 
ATFRHSPC [p4716] | 2 | 
APMYFPHC [p4717] | 2 | 
TYFSHSLC [p4718] | 2 | 
HEPLFSHC [p4719] |  | Binding Capacity (code (weak binding, OD halfmax 1:<4000)) [2]: 1
SLMRHSSC [p4721] | 2 | 
EFLRHTLC [p4722] | 3 | 

Molecule | Binding Capacity [2] | also measured
ATPLFRHC [p4723] | 3 | 
QELKRYYC [p4724] |  | Binding Capacity (code (weak binding, OD halfmax 1:<4000)) [2]: 1
LHIPFRHC [p4726] | 3 | 
NELFKHFC [p4727] | 2 | 
SQYFPRPC [p4729] | 2 | 
MLPFRHGC [p4731] | 2 | 
SAMRHSLC [p4732] | 2 | 
TPLMFWHC [p4733] |  | Binding Capacity (code (weak binding, OD halfmax 1:<4000)) [2]: 1
LQFKHSTC [p4734] | 2 | 
ATFRHSTC [p4735] | 2 | 
TGLMFKHC [p4736] | 2 | 
AEFSHWHC [p4737] | 2 | 
AEFMHSVC [p4739] | 2 | 
IGFRHDSC [p4742] | 2 | 
SNSEFRRC [p4743] | 3 | 
SELRHSTC [p4744] | 3 | 
THMEFRRC [p4745] | 3 | 
QLFKHSPC [p4747] | 3 | 
YEFRHAQC [p4748] | 3 | 
SNFRHSVC [p4749] | 3 | 
APIQFRHC [p4750] | 3 | 
AYFPHTSC [p4751] | 2 | 
NSSELRHC [p4752] | 3 | 
TSTEMWHC [p4754] |  | Binding Capacity (code (weak binding, OD halfmax 1:<4000)) [2]: 1
SQSYFKHC [p4755] | 3 | 
